The values that follow come from patent publication US20260347504 (published 2026).

For one assay, the target named is human TLR4 ECD (human, UniProt O00206). The experiment in a line: SPR, TLR4 immobilized.
The target of a further assay is human RAGE ECD (human, UniProt Q15109). Briefly: SPR, RAGE immobilized.
Sequence of human RAGE ECD (Q15109 1-344): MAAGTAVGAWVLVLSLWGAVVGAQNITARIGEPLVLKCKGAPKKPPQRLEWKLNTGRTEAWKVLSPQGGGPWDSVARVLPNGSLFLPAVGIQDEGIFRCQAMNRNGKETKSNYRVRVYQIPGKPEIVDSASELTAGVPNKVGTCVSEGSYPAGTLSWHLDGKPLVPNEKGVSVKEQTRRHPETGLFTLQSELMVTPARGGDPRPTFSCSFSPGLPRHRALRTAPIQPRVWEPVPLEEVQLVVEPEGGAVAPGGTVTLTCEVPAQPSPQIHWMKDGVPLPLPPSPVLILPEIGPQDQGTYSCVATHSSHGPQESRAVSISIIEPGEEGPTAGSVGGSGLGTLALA

Sequence of human TLR4 ECD (O00206 1-631): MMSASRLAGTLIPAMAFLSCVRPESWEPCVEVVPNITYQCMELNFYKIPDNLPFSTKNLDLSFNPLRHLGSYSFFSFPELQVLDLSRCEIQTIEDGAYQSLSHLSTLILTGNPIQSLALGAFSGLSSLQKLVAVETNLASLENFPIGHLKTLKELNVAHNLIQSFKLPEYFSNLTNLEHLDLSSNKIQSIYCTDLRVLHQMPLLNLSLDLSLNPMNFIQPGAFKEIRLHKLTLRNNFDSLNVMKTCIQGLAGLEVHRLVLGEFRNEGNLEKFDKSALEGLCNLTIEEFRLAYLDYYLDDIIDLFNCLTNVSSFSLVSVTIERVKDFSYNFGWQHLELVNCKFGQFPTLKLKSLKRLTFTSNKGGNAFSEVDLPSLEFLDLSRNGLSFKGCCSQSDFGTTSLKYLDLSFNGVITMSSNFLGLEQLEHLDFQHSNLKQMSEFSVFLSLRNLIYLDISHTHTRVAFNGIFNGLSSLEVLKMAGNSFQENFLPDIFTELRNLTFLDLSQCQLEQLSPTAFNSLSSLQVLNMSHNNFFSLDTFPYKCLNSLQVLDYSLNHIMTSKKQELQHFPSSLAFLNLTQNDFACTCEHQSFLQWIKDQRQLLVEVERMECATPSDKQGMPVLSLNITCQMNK

B1: human pCTS-L (protein)
chain: ATLTFDHSLEAQWTKWKAMHNRLYGMNEEGWRRAVWEKNMKMIELHNQEYREGKHSFTMAMNAFGDMTSEEFRQVMNGFQNRKPRKGKVFQEPLFYEAPRSVDWREKGYVTPVKNQGQCGSCWAFSATGALEGQMFRKTGRLISLSEQNLVDCSGPQGNEGCNGGLMDYAFQYVQDNGGLDSEESYPYEATEESCKYNPKYSVANDTGFVDIPKQEKALMKAVATVGPISVAIDAGHESFLFYKEGIYFEPDCSSEDMDHGVLVVGYGFESTESDNNKYWLVKNSWGEEWGMGGYVKMAKDRRNHCGIASAASYPTV
B1: the dissociation constant Kd with human TLR4 ECD was 64.4 nM; with human RAGE ECD, 3 nM.
